Assay results taken from the DeepSol protein solubility set.

Assay: soluble on expression in E. coli; label from the status in PepcDB or PDB records

Soluble on expression in E. coli, soluble:
MSLTQETALGAALKSAVQTMSKKKQTEMIADHIYGKYDVFKRFKPLALGIDQDLIAALPQYDAALIARVLANHCRRPRYLKALARGGKRFDLNNRFKGEVTPEEQAIAQNHPFVQQALQQQSAQAAAETLSVEAEAAESSAAEEGGSHHHHHH
MAHHHHHHMATSLSDVNHIILVLSGKGGVGKSTVACQLALALANVHGKKVGLLDVDICGPSVPTICGVTGKDVYRGDAGWEPVSLFHEQHEADTAASATGNVKIMSIAFLLPSENDAVVWRGPKKDAMIRQFVTDVHWGALDYLIIDTPPGTSDEHLTLCEVLKPFNTAGAVIVTTPQDVATDDVKKELSLCHKLELRCLGVVENMSGFVCPHCAHCTDIFSKGGGKKLAEMYEVEFLGAIPIDPTLSLAEDKGQCFVTTATDANSPTVRKTVAAVTGVIDAILKQVEKSAQLQQRH
MSVPAGSVSCLANALLNLRSSTDYNADHGVKNSILNFSNSKDASRFDGSESWSSSVLDKNQFIVAGSDSVKHFVAISTQGRGDHDQWVTSYKLRYTLDNVNWVEYNNGEIINANKDRNSIVTINFNPPIKARSIAIHPQTYNNHISLRWELYALPVKSYSNPSVQVGEVSIGDRSLNSGTGSRTIVRHVKFPVEFLSVPIVSIGCKKVDAHTDNGQMRWEGKSENITTKGFDLTFITWGNNAVYDLTFDYVAVEFNN
MGSDKIHHHHHHMKIAVLPGDGIGPEVVREALKVLEVVEKKTGKTFEKVFGHIGGDAIDRFGEPLPEETKKICLEADAIFLGSVGGPKWDDLPPEKRPEIGGLLALRKMLNLYANIRPIKVYRSLVHVSPLKEKVIGSGVDLVTVRELSYGVYYGQPRGLDEEKGFDTMIYDRKTVERIARTAFEIAKNRRKKVTSVDKANVLYSSMLWRKVVNEVAREYPDVELTHIYVDNAAMQLILKPSQFDVILTTNMFGDILSDESAALPGSLGLLPSASFGDKNLYEPAGGSAPDIAGKNIANPIAQILSLAMMLEHSFGMVEEARKIERAVELVIEEGYRTRDIAEDPEKAVSTSQMGDLICKKLEEIW
MAGDPMKKQFLEKAVFTVAATAATVVLGNKMADADTYTLQEGDSFFSVAQRYHMDAYELASMNGKDITSLILPGQTLTVNGSAAPDNQAAAPTDTTQATTETNDANANTYPVGQCTWGVKAVATWAGDWWGNGGDWASSASAQGYTVGNTPAVGSIMCWTDGGYGHVAYVTAVGEDGKVQVLESNYKDQQWVDNYRGWFDPNNSGTPGSVSYIYPNLEHHHHHH
MSLPNIFVEELVHTPIEKQVIEIVERKGIGHPDSLADGMAEAMSRELSREYIRRFGAVLHHNTDETQIVAGRSNPQFGGGEVIEPIYVLLVGRATKFFNGEYIPTDKIALKAARDYIRQHMQNLDPELDVVFNVRLGEGSTDLQDVFRRKSGNVALANDTSFGIGFAPLSETERLVFNVERRIYEEFRKKNPAIGEDVKVMGLREKDRISLTIAAAFVDRYVANIKEYDAIKEELENFVKEISSEYTEREVEVFVNTADDYETGCVYLTVTGTSAENGDDGSVGRGNRCNGLITPGRPMSMEASSGKNPINHVGKIYNLLANQIAARIAEEVEGVEEVYVRILSQIGKPINEPKALSVQVIPKSGYDISKLERPARDIAEEMIANVGKITDMVIEGKVRTFEGHHHHHH
MKKHVMLVKPFSLEDEKDSENTPPNLIQRILSLFKNVRPGSDLTNFQLPPQMNLARSQLQCYGEIVYSFDGHDLLGECSRRDKPIERMKAMVTWYISTLRPLIFGLAPYNPVIGETHHVSNGHINVLAEQISHHPPVSALHATHEKENVDVLLCQYFTPKFRGAYVDVEVKGKRVVKLLNHKETYEMNQPKLLMTFLPAMGAHWAGKIVIKCPETGLGAELQLLSDSFLSRFTGNNKRAIKGKIFESSSRKQLYEISGHWDRTVTAKNTKTGQLEVIYKASENIAKLKTPIVENLQEVSESESAVVWGEVSEGIVTNNWEKAREAKRDVEEKQRESLRKRKASGQSWIPKHFSVARTGKDWDCVPLQPTVPRAPIVVPL
MTNLPMNKLIDEVNNELSVAINKSVMDTQLEESMLYSLNAGGKRIRPVLLLLTLDSLNTEYELGMKSAIALEMIHTYSLIHDDLPAMDNDDYRRGKLTNHKVYGEWTAILAGDALLTKAFELISSDDRLTDEVKIKVLQRLSIASGHVGMVGGQMLDMQSEGQPIDLETLEMIHKTKTGALLTFAVMSAADIANVDDTTKEHLESYSYHLGMMFQIKDDLLDCYGDEAKLGKKVGSDLENNKSTYVSLLGKDGAEDKLTYHRDAAVDELTQIDEQFNTKHLLEIVDLFYSRDHKGHHHHHH

Soluble on expression in E. coli, not soluble:
GPGSMKERYDPLPPQLETYLRLIPPTSGAASGKADGDKKTGPRRSDDDPMSFYCTSFLMSREWDVQKAFAMMQEVVAYRAVNHLDEQSHFPPAFSVRGWSTEDVCRALERSPRKVGERIDRVCAGVAQGLICGIHYWDKNGRPVFYMVIDSFDEAELMRQLKQMASVGKSHVDVMWEYMVHVLSVTESLVLYQLIQRGAPLSGRPLTSKTTDEEAPAWDLSEGAVTMVYDMKRLTLKMLWKPIIDMFCDNSKTFFNYYPDRIHRIVCVNSPSLVRYAFLLVRGVLPAAFQRKISFVSPHDTLATLETMIDRKYIPHFLGGDCRCEAHDGECLSGYDPRQTGRTRRTVARTDASSEGNDEAPTVYVKLAAGHECTRVFPVNASEVVVWEFAVEGGGHDIIFTTFFVPQSAASGMQWTQVELSKLSSYMVTSEALAKGSDAFAVAEDGVVVLKWHNRRHWFASKRLQLRAYKEGAPSTLHGQASHPE
MGSDKIHHHHHHMSEVHTTIIDLDAGAVFSGTPSGRIIKGFDKPCAHTPNIDPDYVFHECSRDIVVWLMDSSDPLYVFGPTGSGKTSAIKQLAARLNYPVFDVTGHGRLEFPDLVGHLSVRDGSMEFQYGPLALAMRHGGILLLNEIDLLEPATATGFNGILDGEPLCIPENGGEIITPHPMFRFAATANTNGGSDDTGLYQGTLRQNLAFLDRFWLCEMPYPAPEAEKALLERRAPMLPDDIRTRMVDYANEVRRLFMGESGTTYGHSIEVTFSTRTLLRWADLTVRFQPLARQGIQPLTYALDRALGFKASKDTRTTLHELAQRLFPQHAATGE
MGHHHHHHSHMPVVIKEVPSSEAAEDVMVAAPLVCSGKVLEVQVVNQTSVHVDLGSQPKENEAEPSTASSVPLQDEQEPPAYDQAPEVTLQADIEVMSTVHISSVYNDVPVTEGVVYIEQLPEQIVIPFTDQVACLKENEQSKENEQSPRVSPKSVVEKTTSGMSKKSVESVKLAQLEENAKYSSVYMEAEATALLSDTSLKGQPEVPAQLLDAEGAIKIGSEKSLHLEVEITSIVSDNTGQEESGENSVPQEMEGKPVLSGEAAEAVHSGTSVKSSSGPFPPAPEGLTAPEIEPEGEATAE
MGSDKIHHHHHHAKSVATTEHLKRYTEAISHDSCQGRKPFSEGADRAVNYIAHQMKEVGLKPINGDSYFQQVNIISSRTRCPDPMVLKTPKGKIPLDWLEGYTAFSARIEPEIDIDNAELVFAGYGIVAPEYGKNDFEGIENPQDKVAVVIVNDPGLGSDNTDYFNGDIMTYYGRWMYKFEEGARQGLKGVLIIHEDRGAGYPWSVVRASAQSKMYVDSDSDAYHCPLNGWIQFNAAKQLLADNGYDIDQLIEQSKSPDFKPISLKSTVTVSMRNTFDRQQSPNVIGYIPGSGNTDESVIYLGHWDHLGYGAPINGDSIINGATDNAVAIAWMLEMARCFNVLKEKPRRNIVFLSPTCEETGFLGTKYYVEHPLFPIDKIAAVINLDVFPLWGENNDVTITGYGNSELDDTLAELAKKYNRYIMPDPDAYNGMFYRSDHFPFVQKGIPAMFAKGWNDNRKQGKEWAKEHIAHYWAETYHKPTDQTHPDTDDYSGLLQEVQLFFDLGYKLAQDTGYPKWKPKSEFANVLKR
MQGPPRFGRLGGGAARRAARAQAPLYQEQPNYRDLVELAAEQARQAAAAPPPQLVPMLRDPIPIRFHRRDELLDRFGMDLGVAHRQELPNERIELAEARDQLAEQQRRALEAQRDQLARHNALADDLRARRERIVQEARAHARRADARDARLEAAAAADRRERFLQEAQEADARRAADGDARAELGEQLRALEAAVAGLPEAQAPQLRDRRARFVARLRARRAADAQAGALANEQRALEARLEGDFADLRAAEGRLLHPPPPQVCEFFFFAHFLLKMRKNLENLSQKLRFEVENWKIPLKFEICEILWKNHENCSKKR
MGQRGQVCQGRCMAEDQQSSQISDTVPALRRAVRILDLVAGSPRDLTAAELTRILDLPKSSAHGLLAVMTELDLLARSADGTLRIGPHSLRWANGFLSHLDIVSTFNDHLAQRHDLDPYTVTLTVREGGEVVYIGCRNSAQPLGHTFRIGMRLPAPFTATGKILLSDLGPGELRMLFSQFPQPLTSRSVAGLSQLEEELALTRARGYSIDDGQIREGMLCIGAAIRDYSGAASAGIAISLIRSEASDEKIASLGEELRTTANALSEKLGYRSQKD
MAHHHHHHMEPLIIDNLYKFGDEEVRLGIDEAGRGPVLGPMVYAGFYCNKEHEKLLKEMKIDDSKKISEADREMMFHKLNNSSLPFGWRIHVLMPQDISAKMLKKQKYNLNEISHDTAISIIDHVISRGCNLTEVFVDTVGKPSVYEEKLKRLFPHIKCTVKEKADSLYPVVSAASICAKVTRDFLIKKWKYEEPLVNIDKGFGSGYPGDPITKNFLKNNFDTVFGFPSIVRFSWSTADNMLETMGEQIEWYDDIENNDSKAIKRKTPFDYSKLQKPFVQRSLFYSKVGLDLVENL
RLVDESALEEFLTREIGPAETFDVARHEQGHSNETLFVTWGDRELVVRRPPPGQTAETAHDVLREYRVIDALQDTAVPVPPTVTACDDQTIIGSDFYVMARVEGTVIRDDEPARFGSDDARAAVGTELVDTLAAIHEVDPTAVGLSDLGRADGYAKRQVARWGKQLAWAFERTAESRTIPELERVGSWLQDECPDDHPKTLVHGDYKLDNVMFGPGDDPELAAVFDWEMATLGDPRADLGWLLSYWRD
MGSDKIHHHHHHMMKISFIIATLNSGGAERALVTLANALCKEHEVSIIKFHAGESFYKLENEVKVTSLEQFRFDTLYHKIASRFKKFFALRKALKESKSDVFISFLDTTNIACIAAKIGLKTPLIISEHSNEAYLKPKIWRFLRRVSYPFCDALSVLGSSDKVYYERFVKRVKLLLNPCHFSDEISFDSSFEKENLVLFIGRLDHNKNPVMFLKAIAHLDKNLQENYKFVIAGDGQLRQELEYKVKSLGIKVDFLGRVENVKALYEKAKVLCLCSFVEGLPTVLIESLYFEVCRISSSYYNGAKDLIKDNHDGLLVGCDDEIALAKKLELVLNDENFRKELVNNAKQRCKDFEISHIKEEWLKLIAEVKNA
MSLRIESGVCYVINEFCALGNTYMPIDKLVKNCINVLNVKKEEVEKAIYECTLSQKIKVEIINGENCVFTMEYYYCEIGITRKIITLAYDSYKSLEIDVDQKIIQFENENKIKFAPSQVEAIEGAFSNGIEVITGGPGTGKTTIIRCITYIFEELNMKVFMAAPTGRAAKRMSESTGREAKTIHRMLELGYEDEVFFDNNNYSTLQCDVVIIDEASMIDVVLMNSLLKSIGMGTRVIIVGDVDQLPSVGPGNVLRDIIESKCVKVIRLNNIFRQAKESMITVNAHKINSGEMPLLNKKDKDFYFIREDNAEAITNTIISLVYKRLPLFNKSWKAARDIQVLAPMKKGIAGVANLNVSLQSIINPPHKSKDEIKFRDNIFRVGDKVMQIKNNYMLKEGHHHHHH
MNKFSLFFALTATLMTITESAVPTASISAHVLDISGGSPAGGVQILAYIQQNDDWTKIGSEFTQDNGRVDWVSPDFTLIPGTYRLVYITEPYYKAKNVESFYPYVEVVFNIRDATQHYHVPLTLSPWGYSTYRGS
